pKd: −log10 of the molar value.
Target: RSV F DS-Cav1 (human respiratory syncytial virus) (UniProt P03420)
Test: BLI; […] (AHC) biosensors, […] (300-0.41 nM); Octet RED96e; […]

Sequence of MPE8 Fab (VH): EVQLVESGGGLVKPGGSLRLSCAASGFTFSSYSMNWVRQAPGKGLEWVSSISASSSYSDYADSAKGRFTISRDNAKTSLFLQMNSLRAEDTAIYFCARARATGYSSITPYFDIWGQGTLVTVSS
Sequence of MPE8 Fab (VL): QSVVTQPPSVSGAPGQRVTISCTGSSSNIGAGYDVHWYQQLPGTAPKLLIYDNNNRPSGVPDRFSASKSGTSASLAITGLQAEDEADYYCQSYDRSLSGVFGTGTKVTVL
Sequence of UniProt P03420 (P03420 26-513): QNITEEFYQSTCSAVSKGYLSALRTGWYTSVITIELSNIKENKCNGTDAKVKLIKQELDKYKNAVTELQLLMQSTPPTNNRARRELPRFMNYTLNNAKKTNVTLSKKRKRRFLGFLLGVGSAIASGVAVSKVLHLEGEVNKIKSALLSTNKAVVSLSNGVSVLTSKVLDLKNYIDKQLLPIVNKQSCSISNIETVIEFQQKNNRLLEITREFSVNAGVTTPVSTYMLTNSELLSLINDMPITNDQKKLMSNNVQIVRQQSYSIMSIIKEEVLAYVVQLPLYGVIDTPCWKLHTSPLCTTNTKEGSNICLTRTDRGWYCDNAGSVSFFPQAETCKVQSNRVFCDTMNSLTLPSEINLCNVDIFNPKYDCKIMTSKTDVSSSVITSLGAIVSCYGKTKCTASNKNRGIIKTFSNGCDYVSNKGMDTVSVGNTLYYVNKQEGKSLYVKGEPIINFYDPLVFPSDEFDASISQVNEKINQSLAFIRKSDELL

## MPE8 Fab
  pKd: > 12.00
  koff: < 1e-07 s⁻¹
  kon: 360000 M⁻¹ s⁻¹

Reference: PMC8921277
